In US8283521B2, “Transcription factor gene induced by water deficit conditions and abscisic acid from Helianthus annuus, promoter and transgenic plants” (Bioceres S.A., priority 2003, dated 2012):

B1: construct 0 to −400: Hahb-4 promoter fragment, nucleotides 805 to 1221 of SEQ ID NO 3, cloned into pBI101.3 driving gus (nucleic acid, listed as Helianthus annuus)
DNA: GGATGCGAACGAGTGGTTTAACCATACTTTTAAGAGGTGCGATCGGAAATTTTACCTATAAAATACACTAAAAAAGTTCCAAGGGTCCACCCACCCCTTAACCTAAGTCCGCCTTTGTCTGGATCACGTGAAACATCAGGTCTCTCCCTTACCAGTCCAGCTACGACTCATTGACAAAATATCAAAACCATATGATTTTGAGTTTTATCTCAACCGAAAGTGACATCATGACAGAGAATCGACATAACCAAAACGTGTAAACGTACAACTCACCATTGCGTTGAAAAGGACAAAACAGGTAGGATTCTTGTCAAATTCAACGCGTACACCTGTGCTTCATCTAAACCCCATACTTTAAGAACCTTTATAAAGACCACTCACTATATATACACATATATAATATCACTTATCAAACCC
modifications: cloned in pBI101.3 driving gus; promoter (1)..(1221) Large allele
B2: construct including the complete segment of the small allele: promoting region from 0 to −1015 (small allele, SEQ ID NO 10) cloned in pBI101.3 driving gus (nucleic acid, listed as Helianthus annuus)
DNA: GATCCAATTGGACCACCTGGCACATCGTATCTTATCTCTTTTGTCGTTTCCAACACACCACAACACACCTACAAACGTGTCAATTCACACTTCACCAATTTCATTTCCTTTTAGTCAATCATATTAAAAGTAGTAGCCCCCACCCCCATTTGTTACCTACCATTTCCCACTTTAATAATCACCCACGCTATGTCCACTTGTACTTTTGTTTGCACACAACTCTTCCCATAAAATATCAAACCAAATTTTTTTTAATGGAAAACAAATACTTCAAATGCACTATTGGTGAAATTCACCACATCAGAATACACCCGTCTCTACTCATCTACTGGCCAACGAATCTTCACGGGGGAAACCCTCACTCGTCTACTGGGACTACTGGCGCTTCAAAATGGACTACTGACAAAATTCACCACATCGGGATACACTTGTCTACTGCGGTGAGGTAAAATCCGCCGCTCAGCTCAATGATCGAACTAGCGATCGCCACCCACTCACCTTGTCTCCCATCATCACCAGGTGCCGCCAAAACAAAATGTTGGGGGCGGGAATTGAACCTAGGTCCAGTGGCGCACCCATGAATTTTTTTTCTAGGGATGCGAACGAGTGATTTAACCATACTTTTAAGAGGTGCGATCGGAAATTTTACCTATAAAATATACTAAAAAAATTTCAAGGGTCCGCCCACCCACCCCTTAACCTAAGTCCGCCTCTGCCTGGATCACGTGAAACATCAGGTCTCTCTCTTACCAGTTCACCTACAACTCATTGACAAAATATCAAAACCATATGATTTTGAGTTTTATCTCAACCGAAAGTGACATCATGACAGAGAATCGACATAACCAAAACGTGTAAACGTACAACTCACCATTGCGTTGAAAAGGACAAAACAGGTAGGATTCTTGTCAAATTCAACGCGTACACCTGTGCTTCATCTAAACCCCATACTTTAAGAACCTTTATAAAGACCACTCACTATATATACACATATATAATATCACTTATCAAACCC
modifications: cloned in pBI101.3 driving gus
B3: region 0 to −300: promoter fragment, nucleotides 904 to 1221 of SEQ ID NO 3, in pBI101.3 (nucleic acid, listed as Helianthus annuus)
DNA: AACCTAAGTCCGCCTTTGTCTGGATCACGTGAAACATCAGGTCTCTCCCTTACCAGTCCAGCTACGACTCATTGACAAAATATCAAAACCATATGATTTTGAGTTTTATCTCAACCGAAAGTGACATCATGACAGAGAATCGACATAACCAAAACGTGTAAACGTACAACTCACCATTGCGTTGAAAAGGACAAAACAGGTAGGATTCTTGTCAAATTCAACGCGTACACCTGTGCTTCATCTAAACCCCATACTTTAAGAACCTTTATAAAGACCACTCACTATATATACACATATATAATATCACTTATCAAACCC
modifications: in pBI101.3; promoter (1)..(1221) Large allele
B4: region 0 to −200: promoter fragment, nucleotides 1011 to 1221 of SEQ ID NO 3, in pBI101.3 (nucleic acid, listed as Helianthus annuus)
DNA: ATCTCAACCGAAAGTGACATCATGACAGAGAATCGACATAACCAAAACGTGTAAACGTACAACTCACCATTGCGTTGAAAAGGACAAAACAGGTAGGATTCTTGTCAAATTCAACGCGTACACCTGTGCTTCATCTAAACCCCATACTTTAAGAACCTTTATAAAGACCACTCACTATATATACACATATATAATATCACTTATCAAACCC
modifications: in pBI101.3; promoter (1)..(1221) Large allele

Test system: gus gene
Assay: Histochemical analysis of β-glucuronidase activity in transformed plants
Assay type: in vivo, Arabidopsis thaliana
Details: for expression of gus gene in cotyledons: 2-day germination seedlings; for induction of the promoter construct by ABA: gus reporter, ABA treatment; for expression of gus gene in different development stages and organs: several independent lines, all studied organs
Description: When the construct including the complete segment of the small allele was employed, the expression of the gus gene in the cotyledons of 2-day germination seedlings was also viewed. However, and differing from the region 0 to −400, the expression of gus gene was very intense in the leaves and roots of the young seedlings (FIG. 20).
The inventive plants from A. thaliana that resulted resistant to kanamycin in the selection and PCR reaction of were subjected to histochemical β-glucuronidase activity test. The tested embryos and organs were washed with buffer 50 mM Na2HPO4 pH 7. They were then transferred to a solution 50 mM Na2HPO4 pH 7.0, 1% Triton X-100, 2 mM X-gluc (5-bromine-4-chlorine-3-indolil β-D-glucuronide), subjected to vacuum for 5 minutes and incubated at 37° C. in darkness between 2 and 12 hours. After incubation they were fixed in 10% formaldehide solution, 50% ethanol and 5% ascetic acid for 10 minutes at room temperature. Formaldehide was removed, ethanol 70% was added and conserved at 4° C.
The histochemical analysis was made in 2, 10 and 20 day-old seedlings grown in Petri dishes containing MS medium and 0.8% agar and adult plants grown in flowerpots containing soil.

Row | Molecule | expression of gus gene in cotyledons | expression of gus gene in young seedlings (10 germination days) | induction of the promoter construct by ABA | expression of gus gene during the reproductive stage (reproductive stage) | expression of gus gene in leaves and roots (young seedlings) | expression of gus gene in different development stages and organs
1 | B1 | enough to drive the expression of gene gus | not detectable | capable of being induced by ABA | – | – | –
2 | B2 | also viewed | – | – | not detected any expression | very intense | –
3 | B3 | – | – | not induced by ABA | – | – | not expressed
4 | B4 | – | – | not induced by ABA | – | – | not expressed
